Experimental data from patent US20070172455A1.

Tests used:
[1] = molecular target: gp130 on F10.9 melanoma cells (UniProt Q00560); assay: cell-based or functional assay
[2] = molecular target: soluble form of gp130 (sgp130) (human) (UniProt P40189); assay: plate binding assay on sgp130 captured by anti-human gp130 mAb; rhuIL-6 at 500 ng/ml with sIL-6RδVal at 2 to 500 ng/ml, detected with rabbit anti-IL-6R; Scatchard plot
Chain of soluble form of gp130 (sgp130) (human) (P40189 23-619 limits assumed): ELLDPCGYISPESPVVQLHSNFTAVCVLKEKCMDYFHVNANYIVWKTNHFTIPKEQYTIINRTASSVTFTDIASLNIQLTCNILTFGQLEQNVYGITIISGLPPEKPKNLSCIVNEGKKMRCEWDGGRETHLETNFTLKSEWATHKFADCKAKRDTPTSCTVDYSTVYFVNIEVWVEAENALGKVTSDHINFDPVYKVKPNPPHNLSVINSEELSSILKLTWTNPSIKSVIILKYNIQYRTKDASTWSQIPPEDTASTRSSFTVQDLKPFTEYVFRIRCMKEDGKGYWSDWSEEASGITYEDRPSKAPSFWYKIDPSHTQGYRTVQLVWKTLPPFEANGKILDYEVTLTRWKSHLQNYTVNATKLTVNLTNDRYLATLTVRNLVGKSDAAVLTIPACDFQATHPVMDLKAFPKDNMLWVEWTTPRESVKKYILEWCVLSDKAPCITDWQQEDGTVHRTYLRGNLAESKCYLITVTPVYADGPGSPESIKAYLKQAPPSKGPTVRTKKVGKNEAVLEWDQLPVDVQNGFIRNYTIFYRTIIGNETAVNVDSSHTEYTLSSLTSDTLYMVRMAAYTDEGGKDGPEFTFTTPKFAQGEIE

Chain of gp130 on F10.9 melanoma cells (Q00560 23-917 limits assumed): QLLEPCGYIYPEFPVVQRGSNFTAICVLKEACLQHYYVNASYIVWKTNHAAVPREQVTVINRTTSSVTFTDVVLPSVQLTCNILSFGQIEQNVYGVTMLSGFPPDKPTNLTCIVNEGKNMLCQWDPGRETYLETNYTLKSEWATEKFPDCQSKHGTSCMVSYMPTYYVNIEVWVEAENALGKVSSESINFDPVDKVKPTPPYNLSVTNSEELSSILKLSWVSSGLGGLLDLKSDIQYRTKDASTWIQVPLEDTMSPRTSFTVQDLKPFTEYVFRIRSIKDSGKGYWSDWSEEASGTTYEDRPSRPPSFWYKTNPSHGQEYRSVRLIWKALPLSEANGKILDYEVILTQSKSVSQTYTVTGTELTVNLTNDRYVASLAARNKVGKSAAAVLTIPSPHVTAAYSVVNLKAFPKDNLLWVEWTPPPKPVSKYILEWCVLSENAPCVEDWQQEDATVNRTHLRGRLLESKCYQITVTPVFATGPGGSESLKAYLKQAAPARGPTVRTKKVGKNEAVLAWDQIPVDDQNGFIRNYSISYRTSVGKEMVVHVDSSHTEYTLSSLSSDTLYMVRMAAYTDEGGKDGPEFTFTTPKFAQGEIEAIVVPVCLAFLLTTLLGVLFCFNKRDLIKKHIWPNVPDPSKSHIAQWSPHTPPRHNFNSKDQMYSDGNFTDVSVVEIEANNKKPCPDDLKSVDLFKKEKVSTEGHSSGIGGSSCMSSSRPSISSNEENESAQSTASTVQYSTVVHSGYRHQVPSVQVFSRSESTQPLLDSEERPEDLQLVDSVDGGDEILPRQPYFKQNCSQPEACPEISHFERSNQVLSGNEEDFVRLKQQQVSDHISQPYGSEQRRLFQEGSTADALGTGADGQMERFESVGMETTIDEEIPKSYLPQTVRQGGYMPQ

Q: For “mixture of human IL-6 and sIL-6R (rhuIL-6 together with human sIL-6RδVal) (from UniProt P08887 20-356; P05231 29-212)”, which maximal inhibition of F10.9 cells (growth inhibition, crystal violet, 4 days); IL-6 concentration in the mixture [1] is on record?
A: 7.5 nM

Q: What about the maximal inhibition of F10.9 cells (growth inhibition, crystal violet, 4 days); sIL-6RδVal concentration in the mixture [1] of the same substance?
A: 2 nM

Q: What about the Kd [2] of the same substance?
A: 0.26 nM
